Test results taken from publication PMC2680030.

Molecular target: ULBP1 (UniProt Q9BZM6)
Sequence of UniProt Q9BZM6 (Q9BZM6 26-216): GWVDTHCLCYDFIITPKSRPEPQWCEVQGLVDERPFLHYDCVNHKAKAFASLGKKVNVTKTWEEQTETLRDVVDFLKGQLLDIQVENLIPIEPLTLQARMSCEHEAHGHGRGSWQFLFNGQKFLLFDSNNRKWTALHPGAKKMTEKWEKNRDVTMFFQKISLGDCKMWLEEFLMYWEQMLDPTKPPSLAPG

Sequence of NKG2D (P26718 whole entry): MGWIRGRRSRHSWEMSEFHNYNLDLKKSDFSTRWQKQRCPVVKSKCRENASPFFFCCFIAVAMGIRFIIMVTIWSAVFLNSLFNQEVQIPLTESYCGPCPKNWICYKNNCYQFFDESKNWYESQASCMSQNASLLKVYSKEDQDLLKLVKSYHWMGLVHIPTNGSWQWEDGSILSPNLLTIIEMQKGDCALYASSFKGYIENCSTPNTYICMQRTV

“NKG2D (from UniProt P26718 1-216) (receptor)” showed a specific killing via NKG2D: killing of C1R/ULBP1 (37%) minus killing of C1R/Mock (20%) by primary bulk NK culture NK-A.K., effector-to-target ratio 5:1, PI co-staining of CFSE-labelled target cells of 17%.
